{
  "source": "patent US12410253B2",
  "about": "“Compositions comprising anti-NRP2 antibodies” (aTyr Pharma, Inc., priority 2019, dated 2025)",
  "molecules": {"B1": {"name": "aNRP2-11v7: humanized, affinity matured anti-NRP2 antibody, target domain b2; VH SEQ ID NO: 51, VL SEQ ID NO: 52 (antibody, V domains shown)", "VH": "QVQLVQSGAEVKKPGASVKVSCKASGYTFTSFGISWVRQAPGQGLEWIGEIYPRSGNTYYNENFKGRATMTADKSTSTAYMELRSLRSDDTAVYYCARSSGYYGSTPFPYWGQGTLVTVSS", "VL": "DIQMTQSPSSLSASVGDRVTITCRASQDISNYLNWYQQKPGKAVKLLIYYTSRLHSGVPSRFSGSGSGTDYTFTISSLQPEDIATYYCQQGNTLPWTFGGGTKVEIK", "modifications": "Variable heavy chain region; Light chain variable region"}},
  "biological_target": "T1, NRP2/KDR(VEGFR2) (Homo sapiens, UniProt O60462)",
  "T1 construct": "The complete extracellular domain and transmembrane helices of NRP2a (version 2), NRP2b (version 5); expressed in transfected cells; host or cells: Expi293, transient co-transfection",
  "T1 sequence (O60462 23-859 isoform O60462-3 limits assumed)": "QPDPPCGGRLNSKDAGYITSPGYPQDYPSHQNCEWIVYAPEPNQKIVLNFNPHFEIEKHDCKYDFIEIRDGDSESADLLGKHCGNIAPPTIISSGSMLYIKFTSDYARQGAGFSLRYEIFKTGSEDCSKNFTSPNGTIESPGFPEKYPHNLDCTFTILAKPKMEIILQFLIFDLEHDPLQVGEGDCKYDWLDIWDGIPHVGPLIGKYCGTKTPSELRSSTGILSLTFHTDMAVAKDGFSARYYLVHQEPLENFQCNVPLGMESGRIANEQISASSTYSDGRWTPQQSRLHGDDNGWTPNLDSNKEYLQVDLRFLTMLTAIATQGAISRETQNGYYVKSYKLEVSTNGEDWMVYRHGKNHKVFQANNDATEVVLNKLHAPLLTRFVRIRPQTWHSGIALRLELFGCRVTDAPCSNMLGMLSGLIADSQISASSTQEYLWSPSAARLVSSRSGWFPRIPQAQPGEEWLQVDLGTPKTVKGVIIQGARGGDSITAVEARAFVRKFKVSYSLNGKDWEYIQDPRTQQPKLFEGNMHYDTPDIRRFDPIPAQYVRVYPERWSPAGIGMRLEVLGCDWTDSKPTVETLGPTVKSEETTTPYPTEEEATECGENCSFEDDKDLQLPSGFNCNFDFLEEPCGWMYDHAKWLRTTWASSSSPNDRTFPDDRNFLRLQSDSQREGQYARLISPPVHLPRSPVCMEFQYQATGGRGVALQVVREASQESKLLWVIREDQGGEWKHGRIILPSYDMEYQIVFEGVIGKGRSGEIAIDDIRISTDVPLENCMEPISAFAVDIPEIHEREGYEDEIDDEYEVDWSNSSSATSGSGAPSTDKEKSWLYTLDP",
  "assay": "Split-luciferase receptor dimerization assay, NRP2/KDR with VEGF-A",
  "assay_type": "cell-based",
  "conditions": "antibody 100 nM; ligand induced dimerization",
  "experimental": "To further extend the assessment of the biological activity of the anti-NRP2 antibodies, their activity was assessed in a receptor dimerization assay. In brief, vectors encoding a split luciferase pBiT1.1 and pBiT2.1 were obtained from Promega corporation (Madison, Wisconsin). The complete extracellular domain and transmembrane helices of NRP2a (version 2), NRP2b (version 5) (See table N1), FLT4 (VEGFR3), KDR (VEGFR2), and plexin A1 (PLXNA1) were cloned into the vectors and screened for optimal orientation, receptor density, and ligand induced dimerization, following established methods. […] Cells were counted, and 100,000 live cells were plated in a well of a white luminometer plate in Live Cell Imaging Solution (Fisher). Nano-Glo assay substrate (Promega) was added, and the plate was read on a Glomax 96 luminometer at room temperature to establish baseline luminescence. Antibodies were added to the well at 100 nM and the plate was again read to establish a new baseline and monitor the effects of the antibodies on spontaneous receptor dimerization. Depending on the receptor pair, typically 200 nM SEMA3F-p95 (aTyr Pharma), 2 nM VEGF-C(R&D Systems, Minnesota), or 2 nM VEGF165 (R&D Systems, Minnesota) were then added and the plate was again read to measure dimerization of receptors. […]",
  "data": [
    {"molecule": "B1", "values": [
      {"measurement": "effect on NRP2-KDR dimerization (in words)", "result": "increased the ligand induced dimerization signal"}
    ]}
  ]
}
